The text below walks through data of the Human Domainome abundance scans (Beltran et al. 2025).

± gives the uncertainty stated by the source.

To fix the notation:
B1: F-BAR and double SH3 domains protein 1, residues 467 to 528; numbered along this chain, Q86WN1 (parent)
chain: RALPCPAHVVFRYQAGREDELTITEGEWLEVIEEGDADEWVKARNQHGEVGFVPERYLNFPD
B2: Cullin-9, residues 2234 to 2275; numbered along this chain, Q8IWT3 (parent)
chain: KRCPSCQAPIEKNEGCLHMTCAKCNHGFCWRCLKSWKPNHKD

The first data set covers variants of B1. The experiment in a line: abundance fitness (aPCA) (normalised: wild type 0, dead -1); higher = more abundant; growth selection in yeast, the domain comes from the species named. To be noted: Homo sapiens.
For G48Q, the abundance fitness is -0.574 ± 0.19.
Same read-out and setting: next, G48E: -0.169 ± 0.073; G48F: -0.293 ± 0.14; P6M: -0.357 ± 0.12.
For P6W, the abundance fitness was -0.29 ± 0.062.
Same read-out and setting: next, P6N: -0.617 ± 0.15; P6E: -0.294 ± 0.074; P6H: -0.038 ± 0.14.
For the variant P6T, the abundance fitness is -0.219 ± 0.097.
On the same count and under the same terms, next, P6L: -0.321 ± 0.048.
On the same count and under the same terms, next, H47G: 0.051 ± 0.048.
The same measure, in the same setting: the figure for T24V is -0.041 ± 0.053.
Turning to T24Q, the abundance fitness was determined as 0.051 ± 0.082.
Turning to D19H, the abundance fitness was -0.013 ± 0.11.
The same measure, in the same setting: next, D19L: -0.086 ± 0.037; D19T: 0.051 ± 0.059.
As for D36A, the abundance fitness is -0.165 ± 0.077.
Same read-out and setting: the figure for A15Y is -0.875 ± 0.25; for A15E it is -0.438 ± 0.12.
Still for that read-out and setting: next, A15T: -0.714 ± 0.13; V31F: -0.991 ± 0.19.
Same read-out and setting: next, V31T: -0.778 ± 0.14.
V31I: the abundance fitness was -0.028 ± 0.067.
Same read-out and setting: the figure for A37H is -0.005 ± 0.13; for A2W it is -0.146 ± 0.061.
The same measure, in the same setting: the figure for V10L is -0.165 ± 0.05.
Same read-out and setting: the figure for V10S is -0.105 ± 0.073.
Regarding E55K, the abundance fitness is -0.02 ± 0.079.
On the same count and under the same terms, next, E55V: 0.054 ± 0.05; E55R: 0.038 ± 0.042; E55Q: -0.138 ± 0.069.
The same measure, in the same setting: next, L58C: -0.499 ± 0.078; R12A: 0.056 ± 0.055; R12P: -0.102 ± 0.072.
With R12Q, the abundance fitness is -0.078 ± 0.075.
The same measure, in the same setting: next, F11N: 0.039 ± 0.083; F11T: 0.069 ± 0.056.
Same read-out and setting: next, P4G: -0.333 ± 0.068.
Same read-out and setting: the figure for P4I is -0.381 ± 0.11; for G51W it is -0.954 ± 0.13.
Turning to G51P, the abundance fitness is -0.952 ± 0.16.
Same read-out and setting: the figure for G51M is -0.843 ± 0.12.
Take I32S: the abundance fitness is -0.863 ± 0.12.
The same measure, in the same setting: the figure for W40H is -0.01 ± 0.085.
Still for that read-out and setting: the figure for W40V is -0.111 ± 0.067.
Still for that read-out and setting: the figure for W40K is -0.051 ± 0.075.
In the case of W40I, the abundance fitness was -0.139 ± 0.16.
On the same count and under the same terms, the figure for L21Q is -0.927 ± 0.21.
The same measure, in the same setting: the figure for L21S is -0.517 ± 0.093; for L21K it is -0.989 ± 0.35; for R1I it is -0.052 ± 0.11.
Same read-out and setting: the figure for R1H is -0.2 ± 0.16.
In the case of P54G, the abundance fitness was -0.299 ± 0.059.
For P54S, the abundance fitness was -0.126 ± 0.059.
Same read-out and setting: next, E18A: -0.228 ± 0.073; I23F: -0.791 ± 0.1.
Regarding I23G, the abundance fitness is -0.588 ± 0.098.
Still for that read-out and setting: next, W28R: 0.039 ± 0.041; F52T: -0.284 ± 0.079; F52M: -0.019 ± 0.061.
On the same count and under the same terms, next, F52V: -0.127 ± 0.039; F52H: -0.199 ± 0.093; V9S: -0.752 ± 0.09.
Still for that read-out and setting: the figure for V9K is -0.598 ± 0.11.
For Y57E, the abundance fitness was -0.595 ± 0.11.
Same read-out and setting: next, Y57P: -0.613 ± 0.1; Y57Q: -0.292 ± 0.089; E30D: -0.177 ± 0.093.
With L3H, the abundance fitness is -0.206 ± 0.091.
On the same count and under the same terms, next, L3F: 0.05 ± 0.061; F60L: -0.213 ± 0.041; F60P: -0.466 ± 0.18.
On the same count and under the same terms, the figure for F60G is -0.555 ± 0.063; for F60W it is -0.064 ± 0.051; for P61V it is 0.001 ± 0.073.
On the same count and under the same terms, the figure for P61M is -0.088 ± 0.076; for E39M it is 0.148 ± 0.071; for Q14G it is -0.377 ± 0.07.
As to R56D, the abundance fitness is -0.074 ± 0.11.
Still for that read-out and setting: the figure for R56A is 0.035 ± 0.06; for R56K it is 0.033 ± 0.057; for K42R it is -0.182 ± 0.058.
As for H8A, the abundance fitness was -0.497 ± 0.073.
Still for that read-out and setting: next, H8K: -0.257 ± 0.072; H8C: -0.28 ± 0.11.
Still for that read-out and setting: next, A7N: -0.521 ± 0.19; A7D: -0.976 ± 0.34.
The same measure, in the same setting: next, A7Y: -0.528 ± 0.21; E34R: -0.044 ± 0.049.
With E34Q, the abundance fitness was -0.026 ± 0.062.
Take R44Q: the abundance fitness is -0.23 ± 0.073.
Same read-out and setting: next, E33A: -0.048 ± 0.07; G16F: -0.136 ± 0.083.
In the case of G16Y, the abundance fitness came out at 0.497 ± 0.18.
Still for that read-out and setting: the figure for Y13A is -0.504 ± 0.079; for Y13P it is -0.711 ± 0.13.
Turning to Y13T, the abundance fitness was -0.629 ± 0.13.
On the same count and under the same terms, the figure for Y13R is -0.226 ± 0.061.
Same read-out and setting: next, G35C: -0.179 ± 0.15; C5F: -0.294 ± 0.12.
Same read-out and setting: the figure for R17Q is -0.117 ± 0.088.
For the variant R17W, the abundance fitness is -0.346 ± 0.071.
Same read-out and setting: the figure for V41E is -1.12 ± 0.47; for D38Q it is 0.021 ± 0.099.
The same measure, in the same setting: next, G26A: -0.501 ± 0.078; A43I: -0.297 ± 0.2; A43K: -0.71 ± 0.17.
Still for that read-out and setting: the figure for E49R is -0.085 ± 0.058; for E49D it is -0.118 ± 0.11.
As for E49Q, the abundance fitness was 0.101 ± 0.073.
Same read-out and setting: next, N45G: -0.576 ± 0.098.
The same measure, in the same setting: next, N45D: -0.571 ± 0.2.

Variants of B2 are the subject of another data set. Described as above. The conditions noted are these: Homo sapiens.
On to KRCPSCQAPIEKNEGCLHMTCAKCNHGFCIRCLKSWKPNHKD, for which the abundance fitness is -0.258 ± 0.12.
Same read-out and setting: the figure for KRCPSCQAPIEKNEGCLHMTCAKANHGFCWRCLKSWKPNHKD is -0.45 ± 0.094; for KRCPSCQAPICKNEGCLHMTCAKCNHGFCWRCLKSWKPNHKD it is -0.487 ± 0.16.
On the same count and under the same terms, the figure for YRCPSCQAPIEKNEGCLHMTCAKCNHGFCWRCLKSWKPNHKD is 0.038 ± 0.38.
Same read-out and setting: next, QRCPSCQAPIEKNEGCLHMTCAKCNHGFCWRCLKSWKPNHKD: -0.691 ± 0.4; KRCPSCQAPIEKNEGCLHMTCAKCNHGFCWRCLKSWKPNHKM: -0.77 ± 0.37.
KRCPSCQAPIEKIEGCLHMTCAKCNHGFCWRCLKSWKPNHKD: the abundance fitness stood at 0.493 ± 0.18.
Still for that read-out and setting: next, KRCPSCQAPIEKHEGCLHMTCAKCNHGFCWRCLKSWKPNHKD: -0.165 ± 0.14; KRCPSCQAPIEKDEGCLHMTCAKCNHGFCWRCLKSWKPNHKD: -0.209 ± 0.13.
For KRCPSAQAPIEKNEGCLHMTCAKCNHGFCWRCLKSWKPNHKD, the abundance fitness was -0.029 ± 0.096.
Still for that read-out and setting: the figure for KRCPSCQAPIEKNEGGLHMTCAKCNHGFCWRCLKSWKPNHKD is 0.55 ± 0.069.
The same measure, in the same setting: the figure for KRCPSCQAPIEKNEGLLHMTCAKCNHGFCWRCLKSWKPNHKD is -0.115 ± 0.084.
The same measure, in the same setting: next, KHCPSCQAPIEKNEGCLHMTCAKCNHGFCWRCLKSWKPNHKD: 0.104 ± 0.35; KRCPSCQAPIEGNEGCLHMTCAKCNHGFCWRCLKSWKPNHKD: 0.268 ± 0.071; KRCPSCQAPIEKNEGCLHMTHAKCNHGFCWRCLKSWKPNHKD: -1.16 ± 0.29.
For the variant KRCPSCQAPIEKNEGCLHMTCAKCNHGFCWRCIKSWKPNHKD, the abundance fitness is -0.501 ± 0.19.
Same read-out and setting: the figure for KRCPSCQAPIEKNEGCLHMTCWKCNHGFCWRCLKSWKPNHKD is -0.096 ± 0.11; for KRCPSCQAVIEKNEGCLHMTCAKCNHGFCWRCLKSWKPNHKD it is -0.277 ± 0.098.
Still for that read-out and setting: next, KRCPSCQAPIEKNEGCLHMTCARCNHGFCWRCLKSWKPNHKD: -0.015 ± 0.077; KRCPSCQAPIEKNEGCLHMTCAECNHGFCWRCLKSWKPNHKD: -0.209 ± 0.097.
